In assay [1] the target is Retromer (His10-SNAP-VPS26/VPS35/VPS29 trimer, AF488-labeled) (human) (UniProt O75436).
Assay [2] shares this target. The source holds these as a separate data set.

As for “Retromer (His10-SNAP-VPS26/VPS35/VPS29 trimer, AF488-labeled) (from UniProt O75436;Q96QK1;Q9UBQ0) (complex)”, in assay [1], the percent of particles that are dimers was found to be 35%, the percent of particles that are monomers amounted to 18%, the percent of particles that are pentamers or higher-order oligomers up to ten was 10% and the percent of particles that are tetramers worked out at 13%. For the same substance, the percent of particles that are trimers in assay [1] was 24%. In assay [2], this substance had a mean Retromer complexes per cluster (Retromer complexes per cluster) of 2.7.

The values above are taken from doi:10.1101/2020.03.31.018150.
